From patent US6815532B2, “ATR-2 cell cycle checkpoint” (ICOS Corporation, priority 1999, dated 2004)

Key:
Type in all cases: biochemical
Atr-2 protein = target: T1, Atr-2 protein (Homo sapiens, UniProt Q96Q15); experiment: ATR-2 kinase assay, autophosphorylation (immunoprecipitated FLAG-tagged Atr-2 fragment from 293T cells, 32P-ATP, P81 paper); details: immunoprecipitate from transfected 293T cells, 30° C. for 30 min
T1 construct: a region containing the putative kinase domain was subcloned into the mammalian expression vector, pCIneo; made in house; host or cells: 293T cells (transient transfection, anti-FLAG M2 immunoprecipitate on protein A beads)
Description: (§1) After 48 hr, cells were harvested and lysed in 0.5 ml lysis buffer (Example 6), and the lysates were precleared by incubation with 50 μl protein A beads for 2 hr at 4° C. The supernatant was immunoprecipitated with 6 μg anti-M2 antibody for one hr at 4° C. and the sample was divided into five aliquots. One hundred μl of the mixture was combined with 10 μl protein A beads for three hr at 4° C., after which the beads were washed twice with lysis buffer and three times in kinase buffer containing 10 mM HEPES, pH 7.4, 10 mM MnCl2, 50 mM NaCl, 10 mM MgCl2, and 5 mM DTT.
(§2) In the kinase assay, 10 μl protein A beads was mixed with 10 μl PKA and PKC inhibitors from a p79^S6 kinase assay kit (Upstate Biotechnology Inc., Lake Placid, N.Y.) and 10 μl ATP mixture: containing kinase buffer (above) with 10 mM ATP, 3 μCi ^32P-ATP, plus or minus 6 μl myelin basic protein as substrate. Reactions were incubated at 30° C. for 30 min and 20 μl of the reaction mixture was spotted onto P81 paper. The P81 paper was washed three times in 150 mM phosphoric acid and dried, and Cerenkov radiation measured.

myelin basic protein = experiment: ATR-2 kinase assay with exogenous substrate myelin basic protein; details: immunoprecipitate from transfected 293T cells, 30° C. for 30 min, 32P-ATP
Description: as §1, §2

PHAS-1 = experiment: ATR-2 kinase assay with substrate PHAS-1
histone H1 = experiment: ATR-2 kinase assay with substrate histone H1

B1: 73 kDa Atr-2 truncated protein: FLAG-tagged truncated human Atr-2 containing the putative kinase domain, expressed from pCIneoFLAGATR2 in 293T cells (protein)
chain: MLVAELRRVTVLWDELWLGVLLQQHMYVLRRIQQLEDEVKRVQNNNTLRKEEKIAIMREKHTALMKPIVFALEHVRSITAAPAETPHEKWFQDNYGDAIENALEKLKTPLNPAKPGSSWIPFKEIMLSLQQRAQKRASYILRLEEISPWLAAMTNTEIALPGEVSARDTVTIHSVGGTITILPTKTKPKKLLFLGSDGKSYPYLFKGLEDLHLDERIMQFLSIVNTMFATINRQETPRFHARHYSVTPLGTRSGLIQWVDGATPLFGLYKRWQQREAALQAQKAQDSYQTPQNPGIVPRPSELYYSKIGPALKTVGLSLDVSRRDWPLHVMKAVLEELMEATPPNLLAKELWSSCTTPDEWWRVTQSYARSTAVMSMVGYIIGLGDRHLDNVLIDMTTGEVVHIDYNVCFEKGKSLRVPEKVPFRMTQNIETALGVTGVEGVFRLSCEQVLHIMRRGRETLLTLLEAFVYDPLVDWTAGGEAGFAGAVYGGGGQQAESKQSKREMEREITRSLFSSRVAEIKVNWFKNRDEMLVVLPKLDGSLDEYLSLQEQLTDVEKLQGKLLEEIEFLEGAEGVDHPSHTLQHRYSEHTQLQTQQRAVQEAIQVKLNEFEQWITHYQAAFNNLEATQLASLLQEISTQMDLGPPSYVPA
modifications: left off: small tags and cut ends
notes: FLAG-tagged truncated human Atr-2 containing the putative kinase domain, expressed from pCIneoFLAGATR2 in 293T cells
Atr-2 protein
  kinase activity: phosphorylation of the Atr-2 protein itself: able to phosphorylate
Myelin basic protein
  kinase activity: phosphorylation of exogenous myelin basic protein substrate: able to phosphorylate
PHAS-1
  kinase activity: phosphorylation of PHAS-1: did not phosphorylate
Histone H1
  kinase activity: phosphorylation of histone H1: did not phosphorylate
